Assay [1] concerns FAM19A5 epitope fragment F2 mutant peptides. In words: ELISA binding to mutant F2 peptide fragments (alanine scanning). The arrangement: species or system human. An excerpt:
FIGS. 25A-25J provide the results of the alanine scanning analysis, showing the specific amino acid residues in the epitope F2 fragment that are important for the binding of the various 3-2 antibody variants to FAM19A5 protein. FIGS. 25A, 25B, 25C, and 25D show the results for the following antibodies generated in HEK293F cells: (A) wild-type 3-2 antibody, (B) 1-30 antibody, (C) 1-32 antibody, and (D) 6-10 antibody, respectively. FIGS. 25E, 25F, 25G, 25H, 25I, and 25J show the results for the following antibodies generated in CHO cells: (E) 1-17 antibody, (F) 1-30 antibody, (G) 1-32 antibody, (H) 4-11 antibody, (I) 6-10 antibody, and (J) low-PI antibody, respectively. […] Binding of the antibodies to the different mutant peptides was measured using ELISA.
Overlapping peptide fragments (F1-F6 epitope fragments; SEQ ID NOs: 178-183) of the human FAM19A5 protein were synthesized and conjugated to BSA (SEQ ID NOs: 322-327). Binding of the different anti-FAM19A5 antibodies to the BSA-conjugated peptide fragments F1-F6 was determined by Western blot analysis or ELISA assay. […] The membrane was incubated with the anti-FAM19A5 antibody (e.g., 1-65, […], 1-65-scFv-rabbit Fc-SSS), and the antigen-antibody complexes were detected with the appropriate secondary antibody conjugated with horse-radish peroxidase (anti-rabbit IgG (Fc specific)-HRP, 1:4000 dilution). […]

For the next assay, the target named is T1, FAM19A5 mutants M1 to M8 (Homo sapiens, UniProt Q7Z5A7, D53C/P57N/Q56K/S54C/S55N).
T1 construct: made in house; host or cells: phage display with helper phage
T1 sequence (Q7Z5A7 26-125 isoform Q7Z5A7-2 D46C/S47C/S48N/Q49K/P50N): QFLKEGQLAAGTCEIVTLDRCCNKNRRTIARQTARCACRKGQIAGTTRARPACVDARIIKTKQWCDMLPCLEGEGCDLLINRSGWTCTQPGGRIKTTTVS
The assay is described as follows: Epitope mapping ELISA with FAM19A5 mutants M1-M8. It is filed as binding. The protocol: To further characterize the binding epitopes of the anti-FAM19A5 antibodies disclosed in the present disclosure, the amino acid sequences for the different FAM19 family members (i.e., FAM19A1-5) were aligned. […] The amino acid sequences of these regions were replaced with the consensus sequence of the corresponding regions for the FAM19A1-4 proteins. See Table 13 (the mutated amino acid residues are bolded and underlined).
The mutant FAM19A5-expressing phages were prepared as follows. To prepare the media for phage culture, 55.6 ml of 2M Glucose (D-(+)-Glucose, Sigma), 5 mL of 1M MgCl2 (Magnesium chloride, Junsei) 1 mL of 34 mg/mL chloramphenicol (Sigma) were added to 2×YT media. Colonies obtained through mono-phage ELISA were selected and placed in 5 mL of prepared media (2×YT-GMC) to be cultured for 16 hours at 37° C. with shaking incubator (VS-8480, Vision). 100 μL of each culture was transferred to 10 mL 2×YT-GMC individually which were cultured at 37° C. in the incubator until detection value at O.D. 600 nm reached 0.5. Once detection value has reached 0.5 at O.D. 600 nm, 5 mL of each culture were obtained as samples to be infected. Following sample preparation, 50 μL of […] was added to individual samples then incubated at 37° C. without shaking for 30 minutes and with shaking for additional 30 minutes. Individual cultures were centrifuged for 15 minutes at 3,850 rpm using Micro centrifuge (Micro12, Hanil). The supernatants of centrifuged cultures were removed to be kept separate and replaced with 5 mL of 2×YT media containing 1 mL of IM IPTG (AG Scientific), 5 mL of 1M MgCl2.1 ml of 70 μg/μL kanamycin (Biopure) and 1 mL of Chloramphenicol. The resulting pellets were dispersed thoroughly in newly added media followed by incubation at 30° C. for 16 hours with stirring.

B1: 1-28: anti-FAM19A5 antibody; VH SEQ ID NO: 38, VL SEQ ID NO: 42 (antibody, V domains shown)
VH: AVTLDESGGGLQTPGGALSLVCKASGFDFSDYGMGWVRQAPGKGLEWVAAIRSDGSNPSYGSAVKGRATISKDNGRSTVRLQLNNLRAEDTATYYCAKDGNGYCALDAYRSGGYSCGVYPGSIDAWGHGTEVIVSS
VL: ALTQPSSVSANLEGTVEITCSGSGYGYGWYQQKSPGSAPVTVIYQNDKRPSDIPSRFSGSKSGSTGTLTITGVQVEDEAVYYCGSEDSSTLAGIFGAGTTLTVL
modifications: 1-28 VH; 1-28 VL
As to B1, in assay [1], the “binding to mutant F2 peptide fragments #1, 2, 6, and 8-13” value is “bound strongly”; the “binding to mutant F2 peptide fragments #3, 4, 5, and 7” value was “much reduced binding”. Moreover, in the assay with FAM19A5 mutants M1 to M8, the “binding to FAM19A5 mutant M2” value was “failed to bind”.

The values are drawn from patent US20260265360A1, “USE OF ANTI-FAM19A5 ANTAGONISTS FOR TREATING HEARING DISORDERS” (NEURACLE SCIENCE CO., LTD., priority 2023, published 2026).
